# Experimental data taken from US20250041455A1 (Regeneron, published 2025).
# Molecular target: T1, hmm.hTfRC (REGN2431) (human, UniProt P02786 89-760)
# T1 construct: also called hmm.hTfR(C89-F763); His-myc-myc-hTFRC ecto
# Assay: blocking ELISA; Hmm-hTFRC + supernatant on plate-bound holo-Tf
# T1 sequence (P02786 other isoform, or with tags, fused parts or gaps): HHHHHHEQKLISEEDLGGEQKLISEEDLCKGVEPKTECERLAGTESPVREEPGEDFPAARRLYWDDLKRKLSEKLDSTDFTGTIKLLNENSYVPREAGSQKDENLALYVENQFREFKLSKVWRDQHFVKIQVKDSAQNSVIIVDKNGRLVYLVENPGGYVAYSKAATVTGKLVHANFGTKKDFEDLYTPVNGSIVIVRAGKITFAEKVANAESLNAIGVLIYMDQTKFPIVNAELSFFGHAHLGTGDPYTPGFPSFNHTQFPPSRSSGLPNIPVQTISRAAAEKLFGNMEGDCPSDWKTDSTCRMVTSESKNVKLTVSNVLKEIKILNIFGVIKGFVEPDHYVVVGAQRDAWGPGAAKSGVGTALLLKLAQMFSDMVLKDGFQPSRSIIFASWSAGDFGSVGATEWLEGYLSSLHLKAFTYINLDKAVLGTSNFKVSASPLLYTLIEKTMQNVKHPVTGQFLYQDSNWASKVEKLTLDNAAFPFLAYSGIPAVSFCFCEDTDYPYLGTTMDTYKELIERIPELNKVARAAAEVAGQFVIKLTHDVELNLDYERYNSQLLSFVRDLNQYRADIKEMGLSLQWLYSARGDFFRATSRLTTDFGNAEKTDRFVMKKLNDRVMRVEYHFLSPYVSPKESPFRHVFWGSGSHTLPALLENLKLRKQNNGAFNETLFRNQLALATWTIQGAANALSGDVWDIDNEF
row,Binder,% Blocking [%]
1,12812B scFv (VH-VK) (scFv) QVQLVQSGAEVKKPGSSVRVSCKASRGTFSSYAISWVRQAPGQGLEWMGGIIPIFGTANYAQKFLARVTITADESTSTAYMELSSLRSEDTAVYYCAREKGWNYFDYWGQGTLVTVSSDIQMTQSPPSVSASVGDRVTITCRASQGISSWLAWYQQKPGKAPKLLIYAASSLQSGVPSRFSGSGSGTDFTLTISSLQPEDFATYYCQQANSFPRTFGQGTKVEIK,19
2,12798B scFv (VH-VK) (scFv) EVQLVESGGDLVQPGRSLRLSCAASGFTFDDYAMHWVRQAPGKGLEWVSGISWNSATRVYADSVKGRFTISRDNAKNFLYLQMNSLRSEDTALYHCAKDMDISLGYYGLDVWGQGTTVTVSSEIVMTQSPATLSVSPGERATLSCRASQTVSSNLAWYQQKPGQAPRLLIYGSSSRATGIPARFSGSGSGTEFTLTISSLQSEDFAVYYCQQYNNWPPYTFGQGTKLEIK,0

# Second part, the binder after the results:
row,% Blocking [%],Binder
1,9,69307 scFv (VH-VK) (scFv) EVQLVESGGGLVQPGGSLRLSCTASGFTFSNYWMTWVRQAPGKGLEWVANIKEDGSEKEYVDSVKGRFTISRDNAKNSLYLQMNSLRGEDTAVYYCARDGEQLVDYYYYYVMDVWGQGTTVTVSSDIQMTQSPSSVSASVGDRVTITCRASQGISSWLAWYQQKPGKAPKLLIYAASSLQSGVPSRFSGSGSGTDFTLTISSLQPEDFATYYCQKADSLPYAFGQGTKLEIK
2,11,12802B scFv (VH-VK) (scFv) QVQLVESGGGLVKPGGSLRLSCAASGFTFSDYFMSWIRQAPGKGLEWVSYISSTGSTINYADSVKGRFTISRDNVKNSLYLQMTSLRVEDTAVYYCTRDNWNYEYWGQGTLVTVSSEIVMTQSPATLSVSPGERATLSCRASQSVSINLAWYQQKPGQAPRLLIFVASTRATGIPARFSGSGSGTEFTLTISSLQSEDFATYYCQQYDIWPYTFGQGTKLEIK
3,26,12799B scFv (VH-VK) (scFv) QITLKESGPTLVKPTQTLTLTCTFSGFSLSTSGVGVVWIRQPPGKALEWLALIYWNDHKRYSPSLGSRLTITKDTSKNQVVLTMTNMDPVDTATYYCAHYSGSYSYYYYGLDVWGQGTTVTVSSDIQMTQSPSSVSASVGDRVTITCRASQGIASWLAWYQQKPGKAPELLIYAASSLQGGVPSRFSGSGSGTDFTLTISSLQPEDFAIYYCQQANYFPWTFGQGTKVEIK
